Test results taken from US8124424B2, “Single molecule-format bioluminescent probe” (National Institute of Advanced Industrial Science and …, priority 2007, dated 2012).
One block for each molecule: values may come before it.

Assays:
AR LBD [1] = target: T1, AR LBD (Homo sapiens, UniProt P10275); experiment: Inhibitory effects of androgen antagonists on DHT-induced luminescence, HeLa cells carrying pAR-NC and pTK-RLuc; type: cell-based; parameters: The cDNA-encoding AR LBD (672-910 AA) was modified by PCR; expressed in transfected cells; host or cells: HeLa; settings: 5×10^−4 M antagonist 20 min, then 10^−5 M DHT 20 min, FIG. 8
T1 sequence (P10275 672-910): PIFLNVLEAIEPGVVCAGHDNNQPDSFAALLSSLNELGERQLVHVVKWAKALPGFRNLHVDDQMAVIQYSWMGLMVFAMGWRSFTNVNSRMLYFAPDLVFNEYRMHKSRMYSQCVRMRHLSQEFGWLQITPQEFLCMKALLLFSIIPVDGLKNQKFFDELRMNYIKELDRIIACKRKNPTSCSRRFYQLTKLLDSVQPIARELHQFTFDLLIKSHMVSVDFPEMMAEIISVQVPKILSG
Protocol: HeLa cells were transfected with pAR-NC and pTK-RLuc, and extensively incubated for 16 h. […] The luminescence intensities of each well were determined with a Dual-luciferase assay kit (Promega).

AR LBD [2] = experiment: Comparison of the DHT-induced luminescence of probes pAR-CN, pAR-NC, pAR-mut in HeLa cells; type: cell-based, human; settings: 10^−5 M DHT stimulation, FIG. 3
Protocol: Cervical carcinoma-derived HeLa cells were sub-cultured in 12-well plates in Dulbecco's modified eagle's medium (DMEM; Sigma) supplemented with 10% steroid-free fetal bovine serum (FBS) and 1% penicillin-streptmycin (P/S) at 37° C. in a 5% CO2 incubator. HeLa cells in 12-well plates were transfected with pAR-NC, pAR-CN, or pAR-mut using a transfection reagent, TransIT-LT1 (Minis), which guarantees about 8% transfection efficiency to HeLa cells when incubated for 24 h. The cells were incubated for 12 h and then used for the following experiments.
HeLa cells in 12-well plates were transfected with the plasmids and incubated for 16 h. […] The recovered enzyme activities by ligands were estimated with a luminescence substrate kit, Bright Glo (Promega) or Dual-luciferase assay kit (Promega), according to the manufacturer's manuals. […] After a 3 min incubation at 37° C., the luminescence intensities from the cell lysates were recorded with a luminometer (Minilumat LB9506; Berthold). The protein amounts in the cell lysates were subsequently determined using a Bradford reagent for a normalization of the luminescence intensities. In specific, the firefly luminescence, which was normalized against the determined protein amount, was expressed as “RLU/protein (Bright Glo)”. The unit means the firefly luminescence intensity from the 1 μg of cell lysate.

AR LBD [3] = target: T1, AR LBD; experiment: Androgenic activity of ligands with pSimbe (CBLuc) probes in MCF-7 cells (dose-response, time-course, repetitive measurement, ligand panel); type: cell-based; settings: two stimulations with 10^−5 M DHT for 20 minutes with medium replacement, FIG. 21
Protocol: As controls, vehicle #1 (0.1% DMSO) and vehicle #2 (0.02M phosphoric buffer saline (PBS)) were tested.

AR LBD [4] = target: T1, AR LBD; experiment: Ligand selection of pSimbe-LXA probe in four cell lines (MCF-7, CHO, HeLa, NIH 3T3); type: cell-based; parameters: The cDNA-encoding AR LBD (672-910 AA) was modified by PCR; expressed in transfected cells; host or cells: HeLa; settings: 10^−5 M E2, T, DHT, 20 minutes, FIG. 16
[5] = target: T2, androgen receptor ligand binding domain (AR LBD; 672-910 AA) (human, UniProt P10275 672-910); experiment: cell-based or functional assay
T2 sequence (looked up): T1 sequence (P10275 672-910)

Molecule: CC12CC1(C)C(=O)N(c1cc(Cl)cc(Cl)c1)C2=O (centres unmarked) [procymidone]
percentage inhibition of the DHT-induced luminescence (AR LBD [1]): 68%

Molecule: pAR-mut: plasmid/probe with an alanine mutant (AQNLF) of the FQNLF motif (RGAAQNLFQSV)
luminescence intensities of probe-carrying cells compared among the three probes (AR LBD [2]): four times weaker luminescence intensities than the cells carrying pAR-NC

Molecule: pSimbe-LXA: CBLuc probe with AR LBD and reverse sequence of LXXLL motif from Xenopus TIF2 (SSDQLLRHLIKHK)
reversibility of luminescence on repeated DHT stimulation (AR LBD [3]): reversible recovery in the luminescence intensities
luminescence intensity versus the background in cell lines (AR LBD [4]): marked increase in the luminescence intensity versus the background

t1/2 of the rise in luminescence after 10^-6 M DHT, HeLa cells carrying pAR-NC [5]: 4.5 min
Molecule: RGAFQNLFQSV [AR N-terminal motif peptide (11 AA; 20RGAFQNLFQSV30), 'FQNLF' motif of human AR NTD]
